Data published in paper PMC2120374 (The Journal of Cell Biology, 1995).

Target: T1, Mas70p (S. cerevisiae (endogenous in yeast …, UniProt P07213 1-617))
T1 sequence (looked up): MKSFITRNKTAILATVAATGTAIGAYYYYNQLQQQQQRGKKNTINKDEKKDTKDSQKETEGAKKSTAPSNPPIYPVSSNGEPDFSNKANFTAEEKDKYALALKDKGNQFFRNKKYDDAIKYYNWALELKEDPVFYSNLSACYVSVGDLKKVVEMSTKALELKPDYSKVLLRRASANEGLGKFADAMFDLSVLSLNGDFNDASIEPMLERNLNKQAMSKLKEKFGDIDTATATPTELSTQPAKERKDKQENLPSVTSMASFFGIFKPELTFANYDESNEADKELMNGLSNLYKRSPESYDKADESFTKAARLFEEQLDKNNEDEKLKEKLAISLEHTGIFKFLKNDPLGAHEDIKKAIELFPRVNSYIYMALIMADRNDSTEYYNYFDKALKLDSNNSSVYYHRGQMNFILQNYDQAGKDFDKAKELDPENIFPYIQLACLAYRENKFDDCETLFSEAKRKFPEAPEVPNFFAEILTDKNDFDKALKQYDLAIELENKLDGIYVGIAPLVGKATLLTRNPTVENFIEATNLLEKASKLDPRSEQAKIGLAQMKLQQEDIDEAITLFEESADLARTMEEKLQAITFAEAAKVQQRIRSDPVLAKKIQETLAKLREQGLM
Assay: co-IP

B1: Mas37p (natural protein)
chain: MVKGSVHLWGKDGKASLISVDSIALVWFIKLCTSEEAKSMVAGLQIVFSNNTDLSSDGKLPVLILDNGTKVSGYVNIVQFLHKNICTSKYEKGTDYEEDLAIVRKKDRLLEYSLLNYVDVEISRLTDYQLFLNTKNYNEYTKKLFSKLLYFPMWYNTPLQLRSQARENCEEIIGSLTLEDDEEFVESKAMESASQLAQSKTFKIAHKNKIKGKQELQQVKYNLQFDNRLQSCVSNWLAARKKLDDSVILSSDLLFLANLYVQLGLPDGNRIRSKLEQTFGSELLNSMSNKIDDFVHRPSNNLEQRDPQFREQGNVVMSLYNLACKYI
stoichiometry N: 1 mol Mas37p per mol Mas70p
